Like-named read-outs stand apart in the source and are kept apart here.
What was measured:
[1] = biological target: KIF5C-KLC1 heterotetramer (human) (UniProt O60282)
[2] = biological target: taxol-stabilised microtubules of porcine brain tubulin (porcine) (UniProt P02550); assay: single-molecule TIRF microscopy on microtubules; biotinylated taxol-stabilised MTs held on streptavidin-coated glass, motor in solution; 90 mM HEPES-KOH pH 7.6, 50 mM KCH3COO, 2 mM Mg(CH3COO)2, 1 mM EGTA, 10% glycerol, 2 mM ATP; landing rate = processive and non-processive events per MT length, time and motor concentration; parameters: landing rate: unit not given here
[3] = biological target: taxol-stabilised microtubules of porcine brain tubulin (porcine) (UniProt P02550); assay: as above

tail-truncated human KIF5A (aa 1-416)-mScarlet-StrepII, sequence (Q12840 1-416): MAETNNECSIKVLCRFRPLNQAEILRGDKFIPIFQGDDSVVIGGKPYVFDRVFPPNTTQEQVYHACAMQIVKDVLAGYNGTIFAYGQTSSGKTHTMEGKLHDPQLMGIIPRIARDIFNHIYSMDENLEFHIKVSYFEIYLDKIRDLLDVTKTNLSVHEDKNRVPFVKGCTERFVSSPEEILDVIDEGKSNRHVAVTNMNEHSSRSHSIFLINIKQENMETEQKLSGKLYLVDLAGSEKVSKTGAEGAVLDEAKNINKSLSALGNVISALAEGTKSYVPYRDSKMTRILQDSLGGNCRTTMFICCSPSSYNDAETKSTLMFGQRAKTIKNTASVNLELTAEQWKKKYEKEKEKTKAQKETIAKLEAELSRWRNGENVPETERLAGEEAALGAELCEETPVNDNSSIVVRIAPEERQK
tail-truncated human KIF5B (aa 1-420)-mScarlet-StrepII, sequence (P33176 1-420): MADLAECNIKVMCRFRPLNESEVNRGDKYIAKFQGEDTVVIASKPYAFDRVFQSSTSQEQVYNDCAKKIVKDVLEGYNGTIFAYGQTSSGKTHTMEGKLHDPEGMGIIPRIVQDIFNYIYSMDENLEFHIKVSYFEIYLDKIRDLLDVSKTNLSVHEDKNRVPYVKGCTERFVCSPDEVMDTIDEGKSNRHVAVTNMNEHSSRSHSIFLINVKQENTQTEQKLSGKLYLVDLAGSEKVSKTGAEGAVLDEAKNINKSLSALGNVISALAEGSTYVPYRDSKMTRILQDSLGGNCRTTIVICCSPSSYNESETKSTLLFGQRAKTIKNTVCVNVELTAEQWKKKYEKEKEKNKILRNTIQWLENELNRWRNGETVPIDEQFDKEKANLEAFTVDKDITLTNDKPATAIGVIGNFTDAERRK
tail-truncated human KIF5C (aa 1-416)-mScarlet-StrepII, sequence (O60282 1-416): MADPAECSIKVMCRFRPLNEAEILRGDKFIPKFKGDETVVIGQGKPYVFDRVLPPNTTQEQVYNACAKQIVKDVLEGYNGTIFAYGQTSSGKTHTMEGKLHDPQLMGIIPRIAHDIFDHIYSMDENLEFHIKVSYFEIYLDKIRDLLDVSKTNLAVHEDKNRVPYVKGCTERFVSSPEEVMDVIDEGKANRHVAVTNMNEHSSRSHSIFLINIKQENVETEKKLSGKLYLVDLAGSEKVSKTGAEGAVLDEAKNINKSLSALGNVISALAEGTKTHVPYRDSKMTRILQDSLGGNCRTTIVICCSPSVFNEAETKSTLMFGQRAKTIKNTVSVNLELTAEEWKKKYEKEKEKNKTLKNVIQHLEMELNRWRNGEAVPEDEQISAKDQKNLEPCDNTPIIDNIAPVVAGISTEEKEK
KIF5B-IAK/AAA-mScarlet-StrepII, sequence (P33176 whole entry I920A/K922A): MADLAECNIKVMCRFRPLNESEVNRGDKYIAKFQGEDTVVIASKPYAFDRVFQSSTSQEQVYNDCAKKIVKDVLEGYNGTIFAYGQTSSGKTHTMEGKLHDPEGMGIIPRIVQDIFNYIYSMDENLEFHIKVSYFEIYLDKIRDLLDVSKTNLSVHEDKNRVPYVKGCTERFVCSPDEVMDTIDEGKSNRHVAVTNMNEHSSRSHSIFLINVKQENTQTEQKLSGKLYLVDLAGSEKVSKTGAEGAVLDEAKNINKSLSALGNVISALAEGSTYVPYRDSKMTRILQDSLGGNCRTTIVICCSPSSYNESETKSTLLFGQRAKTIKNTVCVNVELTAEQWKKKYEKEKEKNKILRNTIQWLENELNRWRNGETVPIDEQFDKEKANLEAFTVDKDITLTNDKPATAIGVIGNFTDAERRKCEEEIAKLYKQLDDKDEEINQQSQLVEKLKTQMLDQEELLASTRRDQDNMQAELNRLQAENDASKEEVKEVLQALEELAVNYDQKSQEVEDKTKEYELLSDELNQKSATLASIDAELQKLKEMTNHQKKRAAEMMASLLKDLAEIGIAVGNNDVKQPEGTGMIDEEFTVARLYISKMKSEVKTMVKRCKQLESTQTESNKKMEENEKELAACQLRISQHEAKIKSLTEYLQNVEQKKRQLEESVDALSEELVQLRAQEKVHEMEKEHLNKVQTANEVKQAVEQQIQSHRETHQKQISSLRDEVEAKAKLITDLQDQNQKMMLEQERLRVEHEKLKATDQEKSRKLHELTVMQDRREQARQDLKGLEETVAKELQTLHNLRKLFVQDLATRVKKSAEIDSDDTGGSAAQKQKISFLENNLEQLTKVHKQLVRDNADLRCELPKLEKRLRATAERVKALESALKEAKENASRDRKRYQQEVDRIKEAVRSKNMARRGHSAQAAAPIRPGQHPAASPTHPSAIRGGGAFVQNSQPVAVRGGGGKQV
KIF5B-Δhinge (Δ505-610)-mScarlet-StrepII, sequence (P33176 other isoform, or with tags, fused parts or gaps mutant): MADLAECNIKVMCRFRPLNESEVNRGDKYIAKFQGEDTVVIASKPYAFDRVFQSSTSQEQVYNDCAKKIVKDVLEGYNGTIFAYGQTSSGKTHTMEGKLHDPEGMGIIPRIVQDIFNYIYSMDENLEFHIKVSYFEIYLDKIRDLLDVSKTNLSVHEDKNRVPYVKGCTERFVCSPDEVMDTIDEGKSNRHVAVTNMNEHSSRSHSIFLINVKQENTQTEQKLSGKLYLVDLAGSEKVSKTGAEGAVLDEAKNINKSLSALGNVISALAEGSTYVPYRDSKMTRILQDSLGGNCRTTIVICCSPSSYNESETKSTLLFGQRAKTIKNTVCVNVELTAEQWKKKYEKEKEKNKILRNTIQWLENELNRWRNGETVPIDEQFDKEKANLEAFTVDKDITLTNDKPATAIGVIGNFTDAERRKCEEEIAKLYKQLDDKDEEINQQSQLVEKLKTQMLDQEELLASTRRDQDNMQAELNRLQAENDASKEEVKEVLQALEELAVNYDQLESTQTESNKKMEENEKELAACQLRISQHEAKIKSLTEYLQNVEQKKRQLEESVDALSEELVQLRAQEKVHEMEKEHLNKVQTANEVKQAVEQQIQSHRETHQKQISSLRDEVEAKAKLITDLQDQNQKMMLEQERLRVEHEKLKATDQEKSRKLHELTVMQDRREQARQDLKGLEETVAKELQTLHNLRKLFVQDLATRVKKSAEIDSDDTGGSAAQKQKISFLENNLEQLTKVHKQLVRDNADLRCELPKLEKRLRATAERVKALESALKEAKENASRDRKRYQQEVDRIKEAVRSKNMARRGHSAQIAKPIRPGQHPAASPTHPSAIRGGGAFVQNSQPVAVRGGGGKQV
full-length human KIF5B-mScarlet-StrepII, sequence (P33176 whole entry): as the sequence (P33176 whole entry I920A/K922A) above, with A920I, A922K counted along it
KIF5C-KLC1 heterotetramer (human), sequence (O60282 whole entry, chain 1 of 2): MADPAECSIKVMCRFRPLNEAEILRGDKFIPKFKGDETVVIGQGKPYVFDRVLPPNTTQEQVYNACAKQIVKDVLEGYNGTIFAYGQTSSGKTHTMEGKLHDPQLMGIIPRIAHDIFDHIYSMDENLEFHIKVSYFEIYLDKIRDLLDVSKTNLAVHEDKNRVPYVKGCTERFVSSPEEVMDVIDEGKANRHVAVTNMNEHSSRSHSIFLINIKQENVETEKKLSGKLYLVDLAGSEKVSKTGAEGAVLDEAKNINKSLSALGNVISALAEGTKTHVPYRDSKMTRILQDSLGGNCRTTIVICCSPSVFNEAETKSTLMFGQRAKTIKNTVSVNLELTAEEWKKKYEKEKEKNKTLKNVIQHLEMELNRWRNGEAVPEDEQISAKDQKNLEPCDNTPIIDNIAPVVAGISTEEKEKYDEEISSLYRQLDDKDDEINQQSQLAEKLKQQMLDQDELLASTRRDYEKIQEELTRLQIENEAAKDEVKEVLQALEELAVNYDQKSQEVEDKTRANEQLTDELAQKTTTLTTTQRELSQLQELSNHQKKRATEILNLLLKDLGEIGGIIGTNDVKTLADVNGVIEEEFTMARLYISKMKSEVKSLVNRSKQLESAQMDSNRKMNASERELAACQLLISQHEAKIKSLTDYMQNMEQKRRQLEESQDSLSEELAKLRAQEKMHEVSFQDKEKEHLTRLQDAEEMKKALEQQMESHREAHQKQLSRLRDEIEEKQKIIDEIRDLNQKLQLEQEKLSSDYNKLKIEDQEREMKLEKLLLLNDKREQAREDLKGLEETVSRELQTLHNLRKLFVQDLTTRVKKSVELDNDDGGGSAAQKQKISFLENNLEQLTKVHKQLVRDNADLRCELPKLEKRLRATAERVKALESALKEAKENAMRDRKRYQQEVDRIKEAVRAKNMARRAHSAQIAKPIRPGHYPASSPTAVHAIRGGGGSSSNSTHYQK
KIF5C-KLC1 heterotetramer (human), sequence (Q07866 whole entry, chain 2 of 2, further chain): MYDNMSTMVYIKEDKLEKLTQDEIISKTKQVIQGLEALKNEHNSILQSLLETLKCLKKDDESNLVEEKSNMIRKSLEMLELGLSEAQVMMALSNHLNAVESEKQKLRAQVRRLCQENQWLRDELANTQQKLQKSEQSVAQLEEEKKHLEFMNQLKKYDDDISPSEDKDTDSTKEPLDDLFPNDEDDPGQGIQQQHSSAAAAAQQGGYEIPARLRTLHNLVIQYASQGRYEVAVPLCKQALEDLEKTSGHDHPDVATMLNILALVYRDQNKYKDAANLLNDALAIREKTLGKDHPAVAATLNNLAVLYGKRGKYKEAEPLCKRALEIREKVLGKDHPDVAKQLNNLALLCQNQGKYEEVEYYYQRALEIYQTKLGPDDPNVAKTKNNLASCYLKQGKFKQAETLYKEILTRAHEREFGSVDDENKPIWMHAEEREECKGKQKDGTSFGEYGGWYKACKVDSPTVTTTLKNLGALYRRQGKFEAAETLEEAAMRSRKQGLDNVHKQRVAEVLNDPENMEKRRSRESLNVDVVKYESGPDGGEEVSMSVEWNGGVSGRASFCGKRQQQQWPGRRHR

6xHis-2xStrepII-sfGFP-nesprin-4 (aa 1-240) WD/AA (from UniProt Q8N205-2 1-240) (domain or fragment)
landing rate of 10 nM KIF5C-KLC1 on MTs (ATP) with 500 nM nesprin-4 WDAA (0.1 without) [1]: 0.2 /μm/s/μM

KIF5A-KLC1 heterotetramer (from UniProt Q12840 1-1032; Q07866 1-573) (complex)
landing rate [2]: 0.1

KIF5B-E178A-mScarlet-StrepII (from UniProt P33176 1-963) (natural protein)
landing rate [3]: 6.2 /μm/s/μM

KIF5B-H129A-mScarlet-StrepII (from UniProt P33176 1-963) (natural protein)
landing rate [3]: 5.4 /μm/s/μM

KIF5B-IAK/AAA-mScarlet-StrepII (from UniProt P33176 1-963) (natural protein)
landing rate [3]: 7 /μm/s/μM

KIF5B-KLC1 heterotetramer (from UniProt P33176 1-963; Q07866 1-573) (complex)
landing rate (Motors/μm/s/μm) [2]: 0.06

KIF5B-Δhinge (Δ505-610)-mScarlet-StrepII (from UniProt P33176 1-963) (natural protein)
landing rate [3]: 22.8 /μm/s/μM

KIF5C-KLC1 heterotetramer (from UniProt O60282 1-957; Q07866 1-573) (complex)
landing rate [2]: 0.06

full-length human KIF5B-mScarlet-StrepII (from UniProt P33176 1-963) (natural protein)
landing rate (Motors/μm/s/μm) [2]: 0.08

tail-truncated human KIF5A (aa 1-416)-mScarlet-StrepII (from UniProt Q12840 1-416) (domain or fragment)
landing rate (motors/µm/s/µM) [2]: 162

tail-truncated human KIF5B (aa 1-420)-mScarlet-StrepII (from UniProt P33176 1-420) (domain or fragment)
landing rate (motors/µm/s/µM) [2]: 146

tail-truncated human KIF5C (aa 1-416)-mScarlet-StrepII (from UniProt O60282 1-416) (domain or fragment)
landing rate (motors/µm/s/µM) [2]: 147
